Laboratory results taken from publication PMC4695023, “Pancreatic adenocarcinoma upregulated factor serves as adjuvant by activating dendritic cells through stimulation of TLR4” (Oncotarget, 2015).

Key:
[1] = target: T1, Toll-like receptor 2 (TLR2), from DC lysate (mouse (endogenous in bone …, UniProt Q9QUN7 25-784)); experiment: BLI; BLItz system; Protein A sensor loaded with TLR2 or TLR4 antibody (0.1 mg/mL), then DC lysate (0.3 mg/mL, 150 sec); association with purified PAUF or BSA (0.3 mg/mL) for 150 sec, dissociation in PBS for 150 sec; KD from BLItz pro software as a non-advanced kinetics experiment; conditions: one partner purified
T1 construct: TLR2, endogenous in dendritic cells; captured from DC lysate with an anti-mouse CD282 (TLR2) antibody on a Protein A sensor; Other lysate proteins may have been captured along with TLR2; also called CD282; source: endogenous, DC lysate, captured on the sensor by anti-mouse CD282 (TLR2) antibody

[2] = target: T2, Toll-like receptor 4 (TLR4), from DC lysate (mouse (endogenous in bone …, UniProt Q9QUK6 26-835)); experiment: as above; conditions: one partner purified
T2 construct: TLR4, endogenous in dendritic cells; captured from DC lysate with a TLR4/CD284 antibody on a Protein A sensor; Other lysate proteins (e.g. MD-2) may have been captured along with TLR4 (surmised); also called CD284; source: endogenous, DC lysate, captured on the sensor by TLR4/CD284 antibody (IMGENEX)
T2 sequence (looked up): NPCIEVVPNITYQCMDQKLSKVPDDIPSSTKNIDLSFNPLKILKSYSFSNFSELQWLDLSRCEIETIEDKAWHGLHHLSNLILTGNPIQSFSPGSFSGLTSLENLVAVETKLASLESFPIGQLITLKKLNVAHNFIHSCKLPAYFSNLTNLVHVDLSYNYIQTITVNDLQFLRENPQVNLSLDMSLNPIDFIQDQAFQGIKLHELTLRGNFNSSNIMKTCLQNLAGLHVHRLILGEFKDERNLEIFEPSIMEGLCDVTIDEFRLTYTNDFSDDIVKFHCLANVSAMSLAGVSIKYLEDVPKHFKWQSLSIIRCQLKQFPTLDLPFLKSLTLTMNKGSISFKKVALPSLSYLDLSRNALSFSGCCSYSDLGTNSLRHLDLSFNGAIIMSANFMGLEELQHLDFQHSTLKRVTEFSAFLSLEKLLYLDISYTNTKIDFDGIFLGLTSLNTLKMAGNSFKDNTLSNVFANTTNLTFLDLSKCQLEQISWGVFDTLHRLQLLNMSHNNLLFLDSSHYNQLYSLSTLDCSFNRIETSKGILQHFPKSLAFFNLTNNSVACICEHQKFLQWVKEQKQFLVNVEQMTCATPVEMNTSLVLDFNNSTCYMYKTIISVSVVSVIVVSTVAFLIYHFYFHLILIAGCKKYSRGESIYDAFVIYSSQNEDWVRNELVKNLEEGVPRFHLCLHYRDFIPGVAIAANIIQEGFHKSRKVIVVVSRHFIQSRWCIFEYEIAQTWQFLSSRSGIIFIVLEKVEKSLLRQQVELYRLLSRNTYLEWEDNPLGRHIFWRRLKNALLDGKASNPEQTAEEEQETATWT

T1 sequence (Q9QUN7 25-784): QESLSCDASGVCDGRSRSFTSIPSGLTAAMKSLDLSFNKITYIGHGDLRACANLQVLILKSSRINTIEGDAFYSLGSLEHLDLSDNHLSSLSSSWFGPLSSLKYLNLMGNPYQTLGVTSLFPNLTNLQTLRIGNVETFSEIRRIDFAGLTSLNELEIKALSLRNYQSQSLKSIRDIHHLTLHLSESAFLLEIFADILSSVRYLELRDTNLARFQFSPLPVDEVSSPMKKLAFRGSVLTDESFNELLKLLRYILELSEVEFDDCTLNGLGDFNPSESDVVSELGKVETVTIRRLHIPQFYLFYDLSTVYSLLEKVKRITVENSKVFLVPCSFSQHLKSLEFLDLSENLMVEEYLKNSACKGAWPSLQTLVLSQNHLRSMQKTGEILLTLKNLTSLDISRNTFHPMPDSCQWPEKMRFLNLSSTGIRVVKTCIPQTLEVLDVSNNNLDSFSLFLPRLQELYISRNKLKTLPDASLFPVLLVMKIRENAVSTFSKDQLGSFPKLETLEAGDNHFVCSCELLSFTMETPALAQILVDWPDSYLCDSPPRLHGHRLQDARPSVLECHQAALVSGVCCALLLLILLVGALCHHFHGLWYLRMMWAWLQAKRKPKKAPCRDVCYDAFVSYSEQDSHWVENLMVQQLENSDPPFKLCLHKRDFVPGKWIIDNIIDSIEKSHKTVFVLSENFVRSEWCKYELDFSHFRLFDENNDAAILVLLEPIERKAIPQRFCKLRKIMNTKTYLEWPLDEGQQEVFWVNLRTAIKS

Kd [1]: 10.6 nM
Kd [2]: 145 nM
B1: Pancreatic adenocarcinoma upregulated factor (PAUF), recombinant, Fc removed (ligand, human, UniProt Q96DA0 17-172, looked up)
chain: GKMYGPGGGKYFSTTEDYDHEITGLRVSVGLLLVKSVQVKLGDSWDVKLGALGGNTQEVTLQPGEYITKVFVAFQAFLRGMVMYTSKDRYFYFGKLDGQISSAYPSQEGQVLVGIYGQYQLLGIKSIGFEWNYPLEEPTTEPPVNLTYSANSPVGR
notes: As a secreted protein it should lack its signal peptide (surmised); also called purified PAUF; PAUF protein; source: CHO/dhFr- cells, transfected with pcDNA3.1(+)-PAUF-Fc; secreted PAUF-Fc purified using Protein A resin, then Fc removed
